From PMC3689955 (The Journal of Biological Chemistry, 2013)

Target: T1, Ligase IV (UniProt P49917 1-911)
T1 construct: DNA Ligase IV, the subunit of XL; also called DNA Ligase IV
T1 sequence (looked up): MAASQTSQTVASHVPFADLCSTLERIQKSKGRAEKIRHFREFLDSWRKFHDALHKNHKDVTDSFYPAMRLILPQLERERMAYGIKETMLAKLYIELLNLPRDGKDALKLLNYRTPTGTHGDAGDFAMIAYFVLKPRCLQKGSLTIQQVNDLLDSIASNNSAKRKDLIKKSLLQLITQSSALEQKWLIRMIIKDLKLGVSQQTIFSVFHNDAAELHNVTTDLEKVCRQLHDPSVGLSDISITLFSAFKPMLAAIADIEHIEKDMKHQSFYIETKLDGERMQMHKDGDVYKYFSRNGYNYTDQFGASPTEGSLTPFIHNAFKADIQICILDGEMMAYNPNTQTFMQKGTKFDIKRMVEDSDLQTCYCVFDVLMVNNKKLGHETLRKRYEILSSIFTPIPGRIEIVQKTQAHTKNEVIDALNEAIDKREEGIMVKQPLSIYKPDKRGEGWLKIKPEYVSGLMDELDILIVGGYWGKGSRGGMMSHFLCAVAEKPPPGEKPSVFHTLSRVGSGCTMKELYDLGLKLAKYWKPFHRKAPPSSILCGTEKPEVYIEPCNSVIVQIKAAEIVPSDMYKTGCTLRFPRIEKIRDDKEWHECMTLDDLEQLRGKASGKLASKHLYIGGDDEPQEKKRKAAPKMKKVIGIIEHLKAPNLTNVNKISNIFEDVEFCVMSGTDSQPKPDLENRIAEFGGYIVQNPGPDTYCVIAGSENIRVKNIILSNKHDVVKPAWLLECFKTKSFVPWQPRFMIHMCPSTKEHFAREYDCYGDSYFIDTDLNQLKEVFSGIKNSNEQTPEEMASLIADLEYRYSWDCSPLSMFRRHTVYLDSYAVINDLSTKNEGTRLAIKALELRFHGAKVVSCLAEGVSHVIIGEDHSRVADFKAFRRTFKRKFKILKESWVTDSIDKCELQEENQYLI
Settings: both partners purified

B1: XRCC4 (natural protein, UniProt Q13426 1-336, looked up)
chain: MERKISRIHLVSEPSITHFLQVSWEKTLESGFVITLTDGHSAWTGTVSESEISQEADDMAMEKGKYVGELRKALLSGAGPADVYTFNFSKESCYFFFEKNLKDVSFRLGSFNLEKVENPAEVIRELICYCLDTIAENQAKNEHLQKENERLLRDWNDVQGRFEKCVSAKEALETDLYKRFILVLNEKKTKIRSLHNKLLNAAQEREKDIKQEGETAICSEMTADRDPVYDESTDEESENQTDLSGLASAAVSKDDSIISSLDVTDIAPSRKRRQRMQRNLGTEPKMAPQENQLQEKENSRPDSSLPETSKKEHISAENMSLETLRNSSPEDLFDEI
notes: also called XRCC4 homodimer
B1 was tested, and the “stoichiometry N” value was < 1 XRCC4 dimer to Ligase IV molar ratio.
